What was measured:
[1] = molecular target: human glucagon receptor (human, UniProt P47871 26-477); assay: cell-based or functional assay
[2] = molecular target: human GLP-1 receptor (human, UniProt P43220 24-463); assay: cell-based or functional assay

Chain of human glucagon receptor (P47871 26-477): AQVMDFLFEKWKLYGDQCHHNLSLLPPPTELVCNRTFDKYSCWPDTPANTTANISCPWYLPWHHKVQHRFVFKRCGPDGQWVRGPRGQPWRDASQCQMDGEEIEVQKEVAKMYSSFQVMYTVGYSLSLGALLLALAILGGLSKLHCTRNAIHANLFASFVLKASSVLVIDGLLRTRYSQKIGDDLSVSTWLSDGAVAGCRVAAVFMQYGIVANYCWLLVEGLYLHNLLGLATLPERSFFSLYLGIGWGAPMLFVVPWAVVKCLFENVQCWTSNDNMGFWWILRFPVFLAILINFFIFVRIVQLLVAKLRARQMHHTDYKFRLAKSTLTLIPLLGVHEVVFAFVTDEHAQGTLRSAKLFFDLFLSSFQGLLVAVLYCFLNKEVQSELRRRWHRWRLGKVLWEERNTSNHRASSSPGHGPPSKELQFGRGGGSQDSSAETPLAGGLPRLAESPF

In the case of “GLP-1 (from UniProt P01275 92-128) (ligand)”, the EC50 human glucagon-R (CRE-luciferase reporter cells) [1] is reported as > 1000 µM.

In the case of HSQGTFTSDYSKYLDEQAAKEFIAWLIAGGPSSGAPPPS [GLP-1/glucagon dual agonist polypeptide expressed by clone 3D9], the “% RLUGLP-1 (CRE-luciferase reporter, against the 100 ng/ml GLP-1 positive control)” value [2] is reported as 286% and the “% RLUGlucagon (CRE-luciferase reporter, against the 100 ng/ml glucagon positive control)” value (“% RLUGlucagon” for short) [1] is reported as 197%.

In the case of HSQGTFTSDYSKYLDEQRAKEFVAWLIAGGPSSGAPPPS [GLP-1/glucagon dual agonist polypeptide expressed by clone 12C6], the “% RLUGLP-1 (CRE-luciferase reporter, against the 100 ng/ml GLP-1 positive control)” value [2] is reported as 183% and the “% RLUGlucagon” value [1] is reported as 112%.

For HSQGTFTSDYSKYLDEQRAKDFIAWLIAGGPSSGAPPPS [GLP-1/glucagon dual agonist polypeptide expressed by clone 6B7], the “% RLUGLP-1 (CRE-luciferase reporter, against the 100 ng/ml GLP-1 positive control)” value [2] was 123% and the “% RLUGlucagon” value [1] was 156%.

Source: US20230322887A1 (SHANGHAI MINWEI BIOTECHNOLOGY, published 2023)
